US20090155873A1, “BIOFUEL PRODUCTION” (BIO ARCHITECTURE LAB, INC., priority 2007, published 2009)

B1: Atu3026 (ADH12): alcohol dehydrogenase ADH12 Atu3026 isolated from Agrobacterium tumefaciens C58, SEQ ID NO:92 (protein)
chain: MQRFTNRTIVVAGAGRDIGRACAIRFAQEGANVVLTYNGAAEGAATAVAEIEKLGRSALAIKADLTNAAEVEAAISAAADKFGEIHGLVHVAGGLIARKTIAEMDEAFWHQVLDVNLTSLFLTAKTALPKMAKGGAIVTFSSQAGRDGGGPGALAYATSKGAVMTFTRGLAKEVGPKIRVNAVCPGMISTTFHDTFTKPEVRERVAGATSLKREGSSEDVAGLVAFLASDDAAYVTGACYDINGGVLFS
modifications: Agrobacterium tumefaciens C58
B2: Vs24259: putative protein of Vibrio splendidus similar to an alginate lyase, SEQ ID NO:34; negative control (protein, listed as Vibrio splendidus)
chain: MKQITLKTLLASSILLAVGCASTSTPTADFPNNKETGEALLTPVAVSASSHDGNGPDRLVDQDLTTRWSSAGDGEWATLDYGSVQEFDAVQASFSKGNQRQSKFDIQVSVDGESWTTVLENQLSSGKAIGLERFQFEPVVQARYVRYVGHGNTKNGWNSVTGLAAVNCSINACPASHIITSDVVAAEAVIIAEMKAAEKARKDARKDLRSGNFGVAAVYPCETTVECDTRSALPVPTGLPATPVAGNSPSENFDMTHWYLSQPFDHDKNGKPDDVSEWNLANGYQHPEIFYTADDGGLVFKAYVKGVRTSKNTKYARTELREMMRRGDQSISTKGVNKNNWVFSSAPESDLESAAGIDGVLEATLKIDHATTTGNANEVGRFIIGQIHDQNDEPIRLYYRKLPNQETGAVYFAHESQDATKEDFYPLVGDMTAEVGDDGIALGEVFSYRIDVKGNTMTVTLIREGKDDVVQVVDMSNSGYDAGGKYMYFKAGVYNQNISGDLDDYSQATFYQLDVSHDQYKK
B3: Atu3027 (ADH11): alcohol dehydrogenase ADH11 Atu3027 isolated from Agrobacterium tumefaciens C58, SEQ ID NO:90 (protein)
chain: MRSELPEGFFGPREWARLNAVADIIPGFPHTDFDTANGAEALAEADILLAAWGTPSLTRERLSRAPRLKMLAYAASSVRMVAPAEFWETSDILVTTAASAMAVPVAEFTYAAIIMCGKDVFRLRDEHRTERGTGVFGSRRGRSLPYLGNHARKVGIVGASRIGRLVMEMLARGTFEIAVYDPFLSAEEAASLGAKKAELDELLAWSDVVSLHAPILPETHHMIGARELALMADHAIFINTARGWLVDHDALLTEAISGRLRILIDTPEPEPLPTDSPFYDLPNVVLTPHIAGALGNELRALSDLAITEIERFVAGLAPLHPVHKQDMERMA
modifications: Agrobacterium tumefaciens C58
B4: ddh3: diol dehydrogenase isolated from Klebsiella pneumoniae MGH78578, SEQ ID NO:102 (protein)
chain: MKKVALVTGAGQGIGKAIALRLVKDGFAVAIADYNDATAKAVASEINQAGGHAVAVKVDVSDRDQVFAAVEQARKTLGGFDVIVNNAGVAPSTPIESITPEIVDKVYNINVKGVIWGIQAAVEAFKKEGHGGKIINACSQAGHVGNPELAVYSSSKFAVRGLTQTAARDLAPLGITVNGYCPGIVKTPMWAEIDRQVSEAAGKPLGYGTAEFAKRITLGRLSEPEDVAACVSYLASPDSDYMTGQSLLIDGGMVFN
modifications: Klebsiella pneumoniae MGH78578
B5: Vs24254: functional external alginate lyase of Vibrio splendidus, SEQ ID NO:32 (protein, listed as Vibrio splendidus)
chain: MNKPIFVVVLASLTYGCGGSSSSDSSDPSDTNNSGASYGVVAPYDIAKYQNILSSSDLQVSDPNGEEGNKTSEVKDGNFDGYVSDYFYADEETENLIFKMANYKMRSEVREGENFDINEAGVRRSLHAEISLPDIEHVMASSPADHDEVTVLQIHNKGTDESGTGYIPHPLLRVVWEQERDGLTGHYWAVMKNNAIDCSSAADSSDCYATSYNRYDLGEADLDNFTKFDLSVYENTLSIKVNDEVKVDEDITYWQHLLSYFKAGIYNQFENGEATAHFQALRYTTTQVNGSNDWDINDWKLTIPASKDTWYGSGGDSAAELEPERCESSKDLLANDSDVYDSDIGLSYFNTDEGRVHFRADMGYGTSTENSSYIRSELRELYQSSVQPDCSTSDEDTSWYLDDTRTNATSHELTASLRIEDYPNINNQDPKVVLGQIHGWKINQALVKLLWEGESKPVRVILNSDFERNNQDCNHCDPFSVELGTYSASEEWRYTIRANQDGIYLATHDLDGTNTVSHLIPWGQDYTDKDGDTVSLTSDWTSTDIAFYFKAGIYPQFKPDSDYAGEVFDVSFSSLRAEHN
B6: pduCDE: diol dehydratase from Klebsiella pneumoniae MGH 78578, subunits SEQ ID NOs:104, 106, 108 (protein)
chain 1: MRSKRFEALAKRPVNQDGFVKEWIEEGFIAMESPNDPKPSIRIVNGAVTELDDKPVEQFDLIDHFIARYGINLARAEEVMAMDSVKLANMLCDPNVKRSDIVPLTTAMTPAKIVEVVSHMNVVEMMMAMQKMRARRTPSQQAHVTNIKDNPVQIAADAAEGAWRGFDEQETTVAVARYAPFNAIALLVGSQVGRPGVLTQCSLEEATELKLGMLGHTCYAETISVYGTEPVFTDGDDTPWSKGFLASSYASRGLKMRFTSGSGSEVQMGYAEGKSMLYLEARCIYITKAAGVQGLQNGSVSCIGVPSAVPSGIRAVLAENLICSALDLECASSNDQTFTHSDMRRTARLLMQFLPGTDFISSGYSAVPNYDNMFAGSNEDAEDFDDYNVIQRDLKVDGGLRPVREEDVIAIRNKAARALQAVFAGMGLPPITDEEVEAATYAHGSKDMPERNIVEDIKFAQEIINKNRNGLEVVKALAKGGFPDVAQDMLNIQKAKLTGDYLHTSAIIVGEGQVLSAVNDVNDYAGPATGYRLQGERWEEIKNIPGALDPNELG
chain 2: MEINETLLRQIIEEVLSEMKSGADKPVSFSAPAASVASAAPVAVAPVSGDSFLTEIGEAKPGTQQDEVIIAVGPAFGLAQTANIVGIPHKNILREVIAGIEEEGIKARVIRCFKSSDVAFVAVEGNRLSGSGISIGIQSKGTTVIHQRGLPPLSNLELFPQAPLLTLETYRQIGKNAARYAKRESPQPVPTLNDQMARPKYQAKSAILHIKETKYVVTGKNPQELRVAL
chain 3: MNTDAIESMVRDVLSRMNSLQDGITPAPAAPTNDTVRQPKVSDYPLATRHPEWVKTATNKTLDDLTLENVLSDRVTAQDMRITPETLRMQAAIAQDAGRDRLAMNFERAAELTAVPDDRILEIYNALRPYRSTQAELLAIADDLEHRYQARLCAAFVREAAGLYIERKKLKGDD
modifications: Klebsiella pneumoniae MGH78578

How the values were obtained:
[1] = In vitro pyruvate formation from alginate or mannuronate; type: biochemical; conditions: purified enzyme ~5 ug, over night, pyruvate assay kit, FIG. 6B and 6C
[2] = TBA assay for secreted alginate lyase; type: cell-based; conditions: BL21 cells, LB+2% alginate+0.1 mM IPTG, overnight culture media, FIG. 47
Experimental: The Vs24254 (SEQ ID NO: 32) region of Vibro spendidus encodes a functional external alginate lyase. BL21 cells expressing Vs24254 from the pET28 vector were capable of breaking down alginate in the growth medium. […] This assay was performed by spinning down an overnight culture grown on the above mentioned media. The media was then mixed in a 1:1 ratio with 0.8% thiobarbituric acid (TBA), heated for 10 min at 99 degrees Celsius, and assayed for pink coloration. […] Wildtype E. coli cells not expressing any recombinant proteins show the same coloration as the negative control Vs24259 (data not shown).

[3] = Sequential reaction of diol dehydrogenase and diol dehydratase on butyroin (GC-MS); type: biochemical; conditions: 37° C., 40 hours, NADH, coenzyme B12, GC-MS, FIGS. 26-27
Experimental: Diol dehydrogenase ddh from Klebsiella pneumoniae MGH 78578 and diol dehydratase pduCDE from Klebsiella pneumoniae MGH 78578 were cloned into a bacterial expression vector and expressed and purified on a Ni-NTA column, as described in Example X except that 1 mM of 1,2-propanediol was added at all time during the expression and purification of diol dehydratase. The large, medium, and small subunits of the pduCDE polypeptide are encoded by the nucleotide sequences of SEQ ID NOs:103, 105, and 107, respectively, and the polypeptide sequence are set forth in SEQ ID NOs: 104, 106, and 108, respectively.
The ddh3 and pduCDE polypeptides were incubated with butyroin and their appropriate cofactors, then assayed using gas chromatography-mass spectrometry (GC-MS) for their ability to perform sequential reactions resulting in the product 4-octanone. The reaction mixture was incubated at 37° C. for 40 hours in a 0.6 mL eppendorf tube with minimal head space. The reaction product was extracted with an equivalent volume of ethyl acetate, stored in a glass vial, and sent to Thermo Fischer Scientific Instruments Division for compositional analysis by GC-MS.

Molecule | catalysis of DEHU hydrogenase and mannuronate hydrogenase reactions in pyruvate formation from alginate [1] | TBA assay result (cleavage of alginate in growth medium) [2] | product formed from butyroin by sequential reactions [3]
B1 | capable of catalyzing both DEHU hydrogenase and mannuronate hydrogenase reactions |  | 
B2 |  | little or no cleavage of the alginate polymer has occurred | 
B3 | capable of catalyzing both DEHU hydrogenase and mannuronate hydrogenase reactions |  | 
B4 |  |  | 4-octanone was produced from butyroin
B5 |  | positive TBA assay result of pink color | 
B6 |  |  | 4-octanone was produced from butyroin
